Measurements reported in patent US20160017037A1 (GlaxoSmithKline, published 2016).

Target: T1, Fc-tagged recombinant soluble LAG-3 (IMP321) (human, UniProt P18627 23-434)
T1 construct: also called LAG3-Ig molecule IMP321; recombinant sLAG-3; not shown: Fc / Ig part
T1 sequence (looked up): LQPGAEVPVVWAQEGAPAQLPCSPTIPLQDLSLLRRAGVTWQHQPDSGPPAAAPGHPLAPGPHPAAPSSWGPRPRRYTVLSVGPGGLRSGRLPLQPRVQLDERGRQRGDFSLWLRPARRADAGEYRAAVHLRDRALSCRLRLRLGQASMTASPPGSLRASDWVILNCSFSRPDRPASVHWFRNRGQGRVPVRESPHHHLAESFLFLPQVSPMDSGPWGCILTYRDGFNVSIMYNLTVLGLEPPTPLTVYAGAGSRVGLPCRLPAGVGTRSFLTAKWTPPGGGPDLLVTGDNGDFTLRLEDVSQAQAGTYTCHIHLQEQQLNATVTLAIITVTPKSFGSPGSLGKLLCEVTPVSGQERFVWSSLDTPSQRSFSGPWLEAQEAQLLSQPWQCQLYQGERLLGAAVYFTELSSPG
Assay: SPR Biacore 3000, off-rate comparison with IMP731, IMP321 analyte at 64 nM
Procedure: The binding kinetics of the purified antibodies for a sLAG-3 molecule were assessed by SPR using a Biacore™ 3000. A goat anti-human kappa antibody (Southern Biotech, Catalogue No. 2060-01) was immobilised on a CM5 chip by primary amine coupling. Humanised anti-LAG3 antibodies were captured on this surface and the LAG3-Ig molecule IMP321 (Chrystelle Brignone, Caroline Grygar, Manon Marcu, Knut Schakel, Frederic Triebel, The Journal of Immunology, 2007, 179: 4202-4211) used as the analyte at 64 nM with a buffer injection (i.e. 0 nM) used to double reference the binding curves. Regeneration was with 10 mM Glycine, pH1.5. The run was carried out on the Biacore™ 3000, using HBS-EP as running buffer and at 25° C. Sensorgrams were normalised for binding at maximal association and off-rates compared against IMP731 by visual inspection of the sensorgram profiles.

B1: H5L7 (antibody, human IgG1, kappa)
heavy: not shown
light: DIQMTQSPSSLSASVGDRVTITCKSSQSLLNPSNQKNYLAWYQQKPGKAPKLLVYFASTRDSGVPSRFSGSGSGTDFTLTISSLQPEDFATYYCLQHFGTPPTFGQGTKLEIKRTVAAPSVFIFPPSDEQLKSGTASVVCLLNNFYPREAKVQWKVDNALQSGNSQESVTEQDSKDSTYSLSSTLTLSKADYEKHKVYACEVTHQGLSSPVTKSFNRGEC
notes: Humanised IgG1/kappa of A9H12 (IMP731); also called fucosylated H5L7; non-ADCC enhanced variant H5L7
With B1 the “Rank order of off-rates” value was 1.
